Results taken from the MegaScale stability set (Tsuboyama et al. 2023).

B1: EHEE_rd2_0191 (parent)
chain: TTEYTFTDDEEARRAIEELKKRGLTFRYEKHGTTWRVRVD

Variants of: B1
Test: folding stability dG (cDNA display proteolysis); higher = more stable
Settings: PBS, room temperature

Variant | folding stability dG [kcal/mol]
TTEYTFTDDEEARRAIEELKKRGLTFIYEKHGTTWRVRVD [R27I] | 2.29
TTEYTFTDDEEARRAIEELKKRGLTFAYEKHGTTWRVRVD [R27A] | 2.1
TTEYTFTDDEEARRAIEELKKRGLTFDYEKHGTTWRVRVD [R27D] | 1.62
TTEYTFTDDEEARRAIEELKKRGLTFNYEKHGTTWRVRVD [R27N] | 1.91
TTEYTFTDDEEARRAIEELKKRGLTFGYEKHGTTWRVRVD [R27G] | 1.37
TTEYTFTDDEEARRAIEELKKRGLTFHYEKHGTTWRVRVD [R27H] | 2.39
TTEYTFTDDEEARRAIEELKKRGLTFWYEKHGTTWRVRVD [R27W] | 2.77
TTEYTFTDDEEARRAIEELKKRGLTFMYEKHGTTWRVRVD [R27M] | 2.03
TTEYTFTDDEEARRAIEELKKRGLTFKYEKHGTTWRVRVD [R27K] | 2
TTEYTFTDDEEARRAIEELKKRGLTFSYEKHGTTWRVRVD [R27S] | 2.73
TTEYTFTDDEEARRAIEELKKRGLTFYYEKHGTTWRVRVD [R27Y] | 2.42
TTEYTFTDDEEARRAIEELKKRGLTFVYEKHGTTWRVRVD [R27V] | 2.51
TTEYTFTDDEEARRAIEELKKRGLTFEYEKHGTTWRVRVD [R27E] | 2.02
TTEYTFTDDEEARRAIEELKKRGLTFLYEKHGTTWRVRVD [R27L] | 1.74
TTEYTFTDDEEARRAIEELKKRGLTFFYEKHGTTWRVRVD [R27F] | 2.29
TTEYTFTDDEEARRAIEELKKRGLTFQYEKHGTTWRVRVD [R27Q] | 2.25
TTEYTFTDDEEARRAIEELKKRGLTFTYEKHGTTWRVRVD [R27T] | 3.02
TTEYTFTDDEEARRAIEELKKRGLTARYEKHGTTWRVRVD [F26A] | 0.99
TTEYTFTDDEEARRAIEELKKRGLTHRYEKHGTTWRVRVD [F26H] | 0.04
TTEYTFTDDEEARRAIEELKKRGLTYRYEKHGTTWRVRVD [F26Y] | 1.73
TTEYTFTDDEEARRAIEELKKRGLTWRYEKHGTTWRVRVD [F26W] | 0.681
TTEYTFTDDEEARRAIEELKKRGLTPRYEKHGTTWRVRVD [F26P] | 1.41
TTEYTFTDDEEARRAIEELKKRGLTVRYEKHGTTWRVRVD [F26V] | 2.73
TTEYTFTDDEEARRAIEELKKRGLTIRYEKHGTTWRVRVD [F26I] | 2.04
TTEYTFTDDEEARRAIEELKKRGLTTRYEKHGTTWRVRVD [F26T] | 0.447

Variant | folding stability dG [kcal/mol]
TTEYTFTDDEEARRAIEELKKRGLTLRYEKHGTTWRVRVD [F26L] | 1.61
TTEYTFTDDEEARRAIEELKKRGLTMRYEKHGTTWRVRVD [F26M] | 0.795
TTEYTFTDDEEARRAIEELKKRGLTFRYERHGTTWRVRVD [K30R] | 1.99
TTEYTFTDDEEARRAIEELKKRGLTFRYEHHGTTWRVRVD [K30H] | 1.51
TTEYTFTDDEEARRAIEELKKRGLTFRYEQHGTTWRVRVD [K30Q] | 1.54
TTEYTFTDDEEARRAIEELKKRGLTFRYEEHGTTWRVRVD [K30E] | -0.015
TTEYTFTDDEEARRAIEELKKRGLTFRYEIHGTTWRVRVD [K30I] | 1.86
TTEYTFTDDEEARRAIEELKKRGLTFRYELHGTTWRVRVD [K30L] | 1.54
TTEYTFTDDEEARRAIEELKKRGLTFRYENHGTTWRVRVD [K30N] | 0.931
TTEYTFTDDEEARRAIEELKKRGLTFRYEAHGTTWRVRVD [K30A] | 0.56
TTEYTFTDDEEARRAIEELKKRGLTFRYEMHGTTWRVRVD [K30M] | 1.43
TTEYTFTDDEEARRAIEELKKRGLTFRYEFHGTTWRVRVD [K30F] | 1.22
TTEYTFTDDEEARRAIEELKKRGTTFRYEKHGTTWRVRVD [L24T] | 1.12
TTEYTFTDDEEARRAIEELKKRGATFRYEKHGTTWRVRVD [L24A] | 2
TTEYTFTDDEEARRAIEELKKRGYTFRYEKHGTTWRVRVD [L24Y] | 2.15
TTEYTFTDDEEARRAIEELKKRGKTFRYEKHGTTWRVRVD [L24K] | 1.55
TTEYTFTDDEEARRAIEELKKRGITFRYEKHGTTWRVRVD [L24I] | 2.16
TTEYTFTDDEEARRAIEELKKRGRTFRYEKHGTTWRVRVD [L24R] | 1.42
TTEYTFTDDEEARRAIEELKKRGGTFRYEKHGTTWRVRVD [L24G] | 0.321
TTEYTFTDDEEARRAIEELKKRGHTFRYEKHGTTWRVRVD [L24H] | 1.46
TTEYTFTDDEEARRAIEELKKRGDTFRYEKHGTTWRVRVD [L24D] | 0.718
TTEYTFTDDEEARRAIEELKKRGWTFRYEKHGTTWRVRVD [L24W] | 1.65
TTEYTFTDDEEARRAIEELKKRGFTFRYEKHGTTWRVRVD [L24F] | 2.08
TTEYTFTDDEEARRAIEELKKRGSTFRYEKHGTTWRVRVD [L24S] | 1.18
TTEYTFTDDEEARRAIEELKKRGETFRYEKHGTTWRVRVD [L24E] | 1.1

Variant | folding stability dG [kcal/mol]
TTEYTFTDDEEARRAIEELKKRGNTFRYEKHGTTWRVRVD [L24N] | 0.838
TTEYTFTDDEEARRAIEELKKRGVTFRYEKHGTTWRVRVD [L24V] | 2.14
TTEYTFTDDEEARRAIEELKKRGQTFRYEKHGTTWRVRVD [L24Q] | 1.27
TTEYTFTDDEEARRAIEELKKRGMTFRYEKHGTTWRVRVD [L24M] | 1.91
TTEYTFTDDEEARRAIEELKKRGLTFRMEKHGTTWRVRVD [Y28M] | 1.86
TTEYTFTDDEEARRAIEELKKRGLTFRREKHGTTWRVRVD [Y28R] | -0.634
TTEYTFTDDEEARRAIEELKKRGLTFRFEKHGTTWRVRVD [Y28F] | 2.06
TTEYTFTDDEEARRAIEELKKRGLTFRLEKHGTTWRVRVD [Y28L] | 2.15
TTEYTFTDDEEARRAIEELKKRGLTFRGEKHGTTWRVRVD [Y28G] | 0.032
TTEYTFTDDEEARRAIEELKKRGLTFRAEKHGTTWRVRVD [Y28A] | 2.4
TTEYTFTDDEEARRAIEELKKRGLTFRKEKHGTTWRVRVD [Y28K] | 0.466
TTEYTFTDDEEARRAIEELKKRGLTFRWEKHGTTWRVRVD [Y28W] | 2.2
TTEYTFTDDEEARRAIEELKKRGLTFRIEKHGTTWRVRVD [Y28I] | 2.95
TTEYTFTDDEEARRAIEELKKRGLTFRTEKHGTTWRVRVD [Y28T] | 1.78
TTEYTFTDDEEARRAIEELKKRGLTFRSEKHGTTWRVRVD [Y28S] | 1.34
TTEYTFTDDEEARRAIEELKKRGLTFRVEKHGTTWRVRVD [Y28V] | 3.23
TTEYTFTDDEEARRAIEELKKRGLTFRCEKHGTTWRVRVD [Y28C] | 2.52
TTEYTFTDDEEARRAIEELKKRGLTFRHEKHGTTWRVRVD [Y28H] | 0.592
TTEYTFTDDEEARRAIEELKKRGLTFRDEKHGTTWRVRVD [Y28D] | -0.987
TTEYTFTDDEEARRAIEELKKRGLTFRQEKHGTTWRVRVD [Y28Q] | 0.764
TTEYTFTDDEEARRAIEELKKRGLTFREEKHGTTWRVRVD [Y28E] | 0.447
TTEYTFTDDEEARRAIEELKKYGLTFRYEKHGTTWRVRVD [R22Y] | 1.55
TTEYTFTDDEEARRAIEELKKWGLTFRYEKHGTTWRVRVD [R22W] | 1.78
TTEYTFTDDEEARRAIEELKKRCLTFRYEKHGTTWRVRVD [G23C] | 1.31
TTEYTFTDDEEARRAIEELKKRKLTFRYEKHGTTWRVRVD [G23K] | 1.21

Variant | folding stability dG [kcal/mol]
TTEYTFTDDEEARRAIEELKKRQLTFRYEKHGTTWRVRVD [G23Q] | 0.972
TTEYTFTDDEEARRAIEELKKRRLTFRYEKHGTTWRVRVD [G23R] | 1.18
TTEYTFTDDEEARRAIEELKKRWLTFRYEKHGTTWRVRVD [G23W] | 0.206
TTEYTFTDDEEARRAIEELKKRALTFRYEKHGTTWRVRVD [G23A] | 0.759
TTEYTFTDDEEARRAIEELKKRSLTFRYEKHGTTWRVRVD [G23S] | 0.756
TTEYTFTDDEEARRAIEELKKRELTFRYEKHGTTWRVRVD [G23E] | 0.428
TTEYTFTDDEEARRAIEELKKRTLTFRYEKHGTTWRVRVD [G23T] | -0.314
TTEYTFTDDEEARRAIEELKKRHLTFRYEKHGTTWRVRVD [G23H] | 1.26
TTEYTFTDDEEARRAIEELKKRMLTFRYEKHGTTWRVRVD [G23M] | 0.906
TTEYTFTDDEEARRAIEELKKRDLTFRYEKHGTTWRVRVD [G23D] | 0.517
TTEYTFTDDEEARRAIEELKKRFLTFRYEKHGTTWRVRVD [G23F] | 0.765
TTEYTFTDDEEARRAIEELKKRLLTFRYEKHGTTWRVRVD [G23L] | 0.596
TTEYTFTDDEEARRAIEELKKRNLTFRYEKHGTTWRVRVD [G23N] | 1.4
TTEYTFTDDEEARRAIEELKKRYLTFRYEKHGTTWRVRVD [G23Y] | 0.547
TTEYTFTDDEEARRAIEELKKRGLGFRYEKHGTTWRVRVD [T25G] | 1.49
TTEYTFTDDEEARRAIEELKKRGLIFRYEKHGTTWRVRVD [T25I] | 2.14
TTEYTFTDDEEARRAIEELKKRGLWFRYEKHGTTWRVRVD [T25W] | 2.28
TTEYTFTDDEEARRAIEELKKRGLKFRYEKHGTTWRVRVD [T25K] | 2.25
TTEYTFTDDEEARRAIEELKKRGLEFRYEKHGTTWRVRVD [T25E] | 1.58
TTEYTFTDDEEARRAIEELKKRGLLFRYEKHGTTWRVRVD [T25L] | 1.97
TTEYTFTDDEEARRAIEELKKRGLHFRYEKHGTTWRVRVD [T25H] | 2.25
TTEYTFTDDEEARRAIEELKKRGLSFRYEKHGTTWRVRVD [T25S] | 2.29
TTEYTFTDDEEARRAIEELKKRGLPFRYEKHGTTWRVRVD [T25P] | 1.84
TTEYTFTDDEEARRAIEELKKRGLAFRYEKHGTTWRVRVD [T25A] | 1.95
TTEYTFTDDEEARRAIEELKKRGLNFRYEKHGTTWRVRVD [T25N] | 2.12

Variant | folding stability dG [kcal/mol]
TTEYTFTDDEEARRAIEELKKRGLFFRYEKHGTTWRVRVD [T25F] | 2.15
TTEYTFTDDEEARRAIEELKKRGLRFRYEKHGTTWRVRVD [T25R] | 2.27
TTEYTFTDDEEARRAIEELKKRGLVFRYEKHGTTWRVRVD [T25V] | 2.08
TTEYTFTDDEEARRAIEELKKRGLMFRYEKHGTTWRVRVD [T25M] | 1.95
TTEYTFTDDEEARRAIEELKKRGLYFRYEKHGTTWRVRVD [T25Y] | 2.07
TTEYTFTDDEEARRAIEELKKRGLDFRYEKHGTTWRVRVD [T25D] | 1.46
TTEYTFTDDEEARRAIEELKKRGLQFRYEKHGTTWRVRVD [T25Q] | 2.01
TTEYTFTDDEEARRAIEELKKRGLTFRYDKHGTTWRVRVD [E29D] | 1.7
TTEYTFTDDEEARRAIEELKKRGLTFRYRKHGTTWRVRVD [E29R] | 1.77
TTEYTFTDDEEARRAIEELKKRGLTFRYCKHGTTWRVRVD [E29C] | 2.56
TTEYTFTDDEEARRAIEELKKRGLTFRYAKHGTTWRVRVD [E29A] | 1.75
TTEYTFTDDEEARRAIEELKKRGLTFRYYKHGTTWRVRVD [E29Y] | 2.44
TTEYTFTDDEEARRAIEELKKRGLTFRYIKHGTTWRVRVD [E29I] | 2.13
TTEYTFTDDEEARRAIEELKKRGLTFRYGKHGTTWRVRVD [E29G] | 1.04
TTEYTFTDDEEARRAIEELKKRGLTFRYWKHGTTWRVRVD [E29W] | 3.04
TTEYTFTDDEEARRAIEELKKRGLTFRYMKHGTTWRVRVD [E29M] | 1.94
TTEYTFTDDEEARRAIEELKKRGLTFRYKKHGTTWRVRVD [E29K] | 1.72
TTEYTFTDDEEARRAIEELKKRGLTFRYQKHGTTWRVRVD [E29Q] | 1.75
TTEYTFTDDEEARRAIEELKKRGLTFRYSKHGTTWRVRVD [E29S] | 2.12
TTEYTFTDDEEARRAIEELKKRGLTFRYLKHGTTWRVRVD [E29L] | 1.71
TTEYTFTDDEEARRAIEELKKRGLTFRYNKHGTTWRVRVD [E29N] | 1.38
TTEYTFTDDEEARRAIEELKKRGLTFRYHKHGTTWRVRVD [E29H] | 1.83
TTEYTFTDDEEARRAIEELKKRGLTFRYFKHGTTWRVRVD [E29F] | 2.35
TTEYTFTDDEEARRAIEELKKRGLTFRYVKHGTTWRVRVD [E29V] | 2.07
TTEYTFTDDEEARRAIEELKKRGLTFRYTKHGTTWRVRVD [E29T] | 2.21
